Data taken from patent US20250250357A1 (NANJING ZAIMING PHARMACEUTICAL, published 2025).

T1: human MSLN-R1-his protein (human, UniProt Q13421 296-390)
T1 construct: Region 1 of human mesothelin, made in HEK293E cells, His-tagged; also called human MSLN-R1 protein; hMSLN-R1-his; not shown: His tag
T1 chain: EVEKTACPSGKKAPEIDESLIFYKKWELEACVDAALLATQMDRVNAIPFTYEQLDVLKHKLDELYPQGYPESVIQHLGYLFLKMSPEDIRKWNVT


How the values were obtained:
[1] = molecular target: T2, human MSLN-R3-his protein (human, UniProt Q13421 487-598); assay: ELISA on coated MSLN-R3; antibody 100 nM
T2 construct: Region 3 of human mesothelin, made in HEK293E cells, His-tagged; also called human MSLN-R3 protein; hMSLN-R3-his; not shown: His tag

[2] = molecular target: T3, human MSLN-R2-his protein (human, UniProt Q13421 391-486); assay: ELISA on coated MSLN-R2; no antibody (blank)
T3 construct: Region 2 of human mesothelin, made in HEK293E cells, His-tagged; also called human MSLN-R2 protein; hMSLN-R2-his; not shown: His tag

[3] = molecular target: T1, human MSLN-R1-his protein; assay: ELISA on coated MSLN-R1; no antibody (blank)
Protocol: (§1) The plate was sealed with a plastic film and incubated at 4° C. overnight. The next day, the plate was washed twice with PBST, and a blocking buffer [PBS+2% (w/w) BSA] was added for blocking at room temperature for 2 h. The blocking buffer was discarded, and a chimeric antibody or negative control antibody serially diluted from 100 nM was added at 50 μL/well. After incubation at 37° C. for 2 h, the plate was washed 3 times with PBST. […] After incubation at 37° C. for 2 h, the plate was washed 5 times with PBST. A TMB substrate was added at 50 μL/well for incubation at room temperature for 5-10 min, and then a stop solution (1.0 N HCl) was added at 50 μL/well.

[4] = molecular target: T2, human MSLN-R3-his protein; assay: ELISA on coated MSLN-R3; antibody 10 nM
Protocol: as §1

[5] = molecular target: T3, human MSLN-R2-his protein; assay: ELISA on coated MSLN-R2; antibody 0.01 nM
Protocol: as §1

[6] = molecular target: T1, human MSLN-R1-his protein; assay: ELISA on coated MSLN-R1; antibody 0.01 nM
Protocol: as §1

[7] = molecular target: T3, human MSLN-R2-his protein; assay: ELISA on coated MSLN-R2; antibody 0.0001 nM
Protocol: as §1

[8] = molecular target: T1, human MSLN-R1-his protein; assay: ELISA on coated MSLN-R1; antibody 0.1 nM
Protocol: as §1

[9] = molecular target: T2, human MSLN-R3-his protein; assay: ELISA on coated MSLN-R3; antibody 0.0001 nM
[10] = molecular target: T3, human MSLN-R2-his protein; assay: ELISA on coated MSLN-R2; antibody 0.1 nM
[11] = molecular target: T1, human MSLN-R1-his protein; assay: ELISA on coated MSLN-R1; antibody 100 nM
[12] = molecular target: T1, human MSLN-R1-his protein; assay: ELISA on coated MSLN-R1; antibody 0.001 nM
Protocol: as §1

[13] = molecular target: T2, human MSLN-R3-his protein; assay: ELISA on coated MSLN-R3; antibody 1 nM
Protocol: as §1

[14] = molecular target: T2, human MSLN-R3-his protein; assay: ELISA on coated MSLN-R3; antibody 0.1 nM
Protocol: as §1

[15] = molecular target: T2, human MSLN-R3-his protein; assay: ELISA on coated MSLN-R3; antibody 0.01 nM
Protocol: as §1

[16] = molecular target: T2, human MSLN-R3-his protein; assay: ELISA on coated MSLN-R3; antibody 0.001 nM
Protocol: as §1

[17] = molecular target: T3, human MSLN-R2-his protein; assay: ELISA on coated MSLN-R2; antibody 10 nM
Protocol: as §1

[18] = molecular target: T3, human MSLN-R2-his protein; assay: ELISA on coated MSLN-R2; antibody 100 nM
Protocol: as §1

[19] = molecular target: T1, human MSLN-R1-his protein; assay: ELISA on coated MSLN-R1; antibody 10 nM
Protocol: as §1

[20] = molecular target: T1, human MSLN-R1-his protein; assay: ELISA on coated MSLN-R1; antibody 1 nM
[21] = molecular target: T2, human MSLN-R3-his protein; assay: ELISA on coated MSLN-R3; no antibody (blank)
[22] = molecular target: T1, human MSLN-R1-his protein; assay: ELISA on coated MSLN-R1; antibody 0.0001 nM
[23] = molecular target: T3, human MSLN-R2-his protein; assay: ELISA on coated MSLN-R2; antibody 0.001 nM
Protocol: as §1

[24] = molecular target: T3, human MSLN-R2-his protein; assay: ELISA on coated MSLN-R2; antibody 1 nM
Protocol: as §1

T2 sequence (Q13421 495-606): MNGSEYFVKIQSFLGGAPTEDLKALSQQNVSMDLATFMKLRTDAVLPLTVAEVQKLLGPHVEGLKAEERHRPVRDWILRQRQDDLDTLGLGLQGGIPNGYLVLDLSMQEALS
T3 sequence (Q13421 other isoform, or with tags, fused parts or gaps): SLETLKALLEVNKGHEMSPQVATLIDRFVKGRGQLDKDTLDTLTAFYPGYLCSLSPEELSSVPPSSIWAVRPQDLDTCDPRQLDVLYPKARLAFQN

| Binder | OD450 [1] [OD450] | OD450 [2] [OD450] | OD450 [3] [OD450] | OD450 [4] [OD450] | OD450 [5] [OD450] | OD450 [6] [OD450] | OD450 [7] [OD450] | OD450 [8] [OD450] | OD450 [9] [OD450] | OD450 [10] [OD450] | OD450 [11] [OD450] | OD450 [12] [OD450] | OD450 [13] [OD450] | OD450 [14] [OD450] | OD450 [15] [OD450] | OD450 [16] [OD450] | OD450 [17] [OD450] | OD450 [18] [OD450] | OD450 [19] [OD450] | OD450 [20] [OD450] | also measured |
| --- | --- | --- | --- | --- | --- | --- | --- | --- | --- | --- | --- | --- | --- | --- | --- | --- | --- | --- | --- | --- | --- |
| S009-F8-12.13 (antibody, human IgG1, kappa, V domains shown) VH: QVQLQQPGAELVKPGASVKLSCKASGYTFTSYWMHWVKQRPGQGLEWIGMIHPNSGSTNYNEKFKSKATLTVDKSSSTAYMQLSSLTSEDSAVYYCARRTPIITLVGHWYFDVWGTGTTVTVSS VL: DIVMTQSHKFMSTSVGDRVSITCKASQDVGTAVAWYQQKPGQSPKLLIYWASTRHTGVPDRFTGSGSGTDFTLTISNVQSEDLADYFCQQYSSYPLTFGAGTKLELKR | 0.2 | 0.05 | 0.05 | 0.1 | 0.05 | 1.18 | 0.04 | 1.97 | 0.04 | 0.05 | 2.17 | 0.52 | 0.06 | 0.05 | 0.04 | 0.05 | 0.07 | 0.15 | 2.16 | 2.06 | OD450 [21]: 0.05 OD450; OD450 [22]: 0.32 OD450; OD450 [23]: 0.04 OD450; OD450 [24]: 0.05 OD450 |
| S009-F8-13.8 (antibody, human IgG1, kappa, V domains shown) VH: EFQLQQSGPELVKPGASVKISCKASGYSFTDYNMNWVKQTNGKSLEWIGIINPNYGTSSYNQKFKGKATLTVDQSSSTAYMQLNSLTSEDSAVYYCARVGRDNSGFDYWGQGTTLTVSS VL: QIVLTQSPAIMSASPGEKVTMTCSASSSVSYMYWYQQKPGSSPRLLIYDTSNLASGVPVRFSGSGSGTSYSLTISRMEAEDAATYYCQQWSSYPPTFGSGTELEIKR | 0.06 | 0.05 | 0.05 | 0.05 | 0.04 | 0.28 | 0.05 | 1.26 | 0.04 | 0.05 | 2.35 | 0.08 | 0.04 | 0.04 | 0.04 | 0.05 | 0.05 | 0.06 | 2.1 | 1.8 | OD450 [21]: 0.05 OD450; OD450 [22]: 0.05 OD450; OD450 [23]: 0.05 OD450; OD450 [24]: 0.04 OD450 |
| S009-F8-15.19 (antibody, human IgG1, kappa, V domains shown) VH: EFQLQQSGPELVKPGASVKISCKASGYSFTDYNMNWVKQSNGKSLEWIGIINPYYGTTSNNQNFKGKATLTVDQSSSTAYMQLNSLTSDDSAVYYCARWLRRDAMDYWGQGTSVTVSS VL: DIVMTPSHKFMSTSVGDRVSIACKASQDVGSSVAWYQQKPGQSPKLLIYWTSTRHTGVPDRFTGSGSGTDFTLTISNVQSEDLADYFCQQYSSYPWTFGGGTKLEIKR | 0.08 | 0.05 | 0.05 | 0.05 | 0.04 | 0.05 | 0.05 | 0.1 | 0.04 | 0.04 | 2.07 | 0.05 | 0.04 | 0.04 | 0.04 | 0.04 | 0.05 | 0.05 | 1.55 | 0.54 | OD450 [21]: 0.05 OD450; OD450 [22]: 0.04 OD450; OD450 [23]: 0.04 OD450; OD450 [24]: 0.04 OD450 |
| S009-F8-18.9 (antibody, human IgG1, kappa, V domains shown) VH: EFQLQQSGPELVKPGASVKISCKASGYSFTDYNMNWVKQSNGKSLEWIGIINPNYGTTSYNQKFKGRATLTVDQSSSTAYVQLNSLTSEDSAVYYCARGGYDNEAMDYWGQGTSVTVSS VL: QIVLTQSPAIMSASPGEKVTMTCSASSSVSYMHWYQQKSGTSPKRWIYDTSKLASGVPARFSGSGSGTSYSLTISSMEAEDAATYYCQQWSSNPPTFGAGTKLELKR | 0.1 | 0.05 | 0.05 | 0.06 | 0.04 | 0.62 | 0.04 | 1.73 | 0.04 | 0.04 | 2.15 | 0.15 | 0.05 | 0.04 | 0.04 | 0.05 | 0.06 | 0.08 | 2.12 | 1.96 | OD450 [21]: 0.05 OD450; OD450 [22]: 0.06 OD450; OD450 [23]: 0.04 OD450; OD450 [24]: 0.05 OD450 |
| S009-F8-19.21 (antibody, human IgG1, kappa, V domains shown) VH: EFQLQQSGPELVKPGASVKISCKTSGYSFTDYNMNWVKQSNGKSLEWIGVINPNYGTTGYNQKFKGKATLTVDQSSSTAYMQLNSLTSEDSAVYYCARGGYDGEAMDYWGHGTSVTVSS VL: QIVLTQSPAIMSASPGEKVTMTCSASSSVNYMHWYQQKSGTSPKRWIYDTSKLASGVPARFSGSGSGTSYSLTISSMEAEDAATYYCQQWSSYPPTFGGGTKLEIKR | 0.09 | 0.05 | 0.05 | 0.05 | 0.04 | 0.39 | 0.05 | 1.46 | 0.04 | 0.04 | 2.13 | 0.1 | 0.04 | 0.04 | 0.04 | 0.04 | 0.06 | 0.06 | 2.11 | 1.82 | OD450 [21]: 0.05 OD450; OD450 [22]: 0.06 OD450; OD450 [23]: 0.04 OD450; OD450 [24]: 0.05 OD450 |
| S009-F8-22.23 (antibody, human IgG1, kappa, V domains shown) VH: QVQLKQSGPGLVQPSQSLSITCTVSGFSLFSYGVHWVRQSPGKGLEWLGVIWSGGSTDYNAAFISRLSISKDNSKSQVFFKMNSLQADDTAMYYCARNGGSMITTLYYAMDYWGQGTSVTVSS VL: DVVMTQTPLSLPVSLGDQASISCRSSQSLVHSYGNTYLHWYLQKPGQSPKLLIYKVSNRFSGVPDRFSGSGSGTDFTLKISRVEAEDLGVYFCSQSTHIPFTFGGGTKLEIKR | 0.1 | 0.04 | 0.04 | 0.05 | 0.04 | 0.78 | 0.04 | 1.72 | 0.04 | 0.05 | 2.55 | 0.36 | 0.04 | 0.04 | 0.04 | 0.04 | 0.11 | 0.17 | 2.51 | 2.34 | OD450 [21]: 0.04 OD450; OD450 [22]: 0.26 OD450; OD450 [23]: 0.05 OD450; OD450 [24]: 0.08 OD450 |
